Legend:
[1] = biological target: T1, Human PD-L1 on the cell surface (tumor cell lines) (human, UniProt Q9NZQ7 19-290); test: cell-based or functional assay
[2] = biological target: T2, Human CD47 on the cell surface (tumor cell lines; human red blood cells) (human, UniProt Q08722 19-323); test: cell-based or functional assay
[3] = biological target: T3, CD47 and PD-L1 co-expressed on the surface of tumor cells (PDL1-MDA-MB-231, NCI-H292, HT-1080) (human, UniProt Q08722 19-323; Q9NZQ7 19-290); test: cell-based or functional assay
T3 sequence (Q08722 19-323 limits assumed, chain 1 of 2): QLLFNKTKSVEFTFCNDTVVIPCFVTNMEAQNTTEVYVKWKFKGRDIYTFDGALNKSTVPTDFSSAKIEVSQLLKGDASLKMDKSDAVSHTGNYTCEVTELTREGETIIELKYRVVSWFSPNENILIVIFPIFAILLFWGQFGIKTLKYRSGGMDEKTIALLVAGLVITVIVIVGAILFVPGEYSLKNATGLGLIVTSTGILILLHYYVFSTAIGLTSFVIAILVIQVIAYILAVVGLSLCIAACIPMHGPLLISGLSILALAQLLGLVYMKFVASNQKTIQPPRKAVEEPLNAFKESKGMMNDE
T3 sequence (Q9NZQ7 19-290 limits assumed, chain 2 of 2): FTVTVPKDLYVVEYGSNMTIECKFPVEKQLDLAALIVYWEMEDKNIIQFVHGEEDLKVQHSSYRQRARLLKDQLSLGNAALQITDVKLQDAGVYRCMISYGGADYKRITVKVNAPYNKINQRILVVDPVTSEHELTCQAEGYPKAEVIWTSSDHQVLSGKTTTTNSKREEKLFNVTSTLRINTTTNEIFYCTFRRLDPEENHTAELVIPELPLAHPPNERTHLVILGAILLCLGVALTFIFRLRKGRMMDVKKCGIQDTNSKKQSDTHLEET

[4] = biological target: T4, Cynomolgus PD-L1, soluble His-tagged (AcroBiosystems Cat# PD1-C52H4) (cynomolgus, UniProt G7PSE7 19-239); test: Carterra biosensor kinetics; bsAb1 coupled to HC30M chip, soluble His-tagged antigen 1.2-900 nM, global fit
T4 construct: Soluble antigen; also called Cyno PD-L1; cyno-PD-L1
T4 sequence (G7PSE7 entry or part of it): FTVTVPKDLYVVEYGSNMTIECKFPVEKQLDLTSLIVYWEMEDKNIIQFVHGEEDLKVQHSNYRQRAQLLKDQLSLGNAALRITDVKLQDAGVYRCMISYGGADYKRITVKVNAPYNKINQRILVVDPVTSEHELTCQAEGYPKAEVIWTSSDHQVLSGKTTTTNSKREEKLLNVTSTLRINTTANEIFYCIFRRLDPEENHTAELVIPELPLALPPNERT
Procedure: (§1) To obtain accurate kinetic constants, the bispecific antibody was prepared at concentrations ranging from 1 to 10 μg/mL in 10 mM NaOAc (pH 4.25 or pH 4.5), and the coupling reaction was performed in running buffer (25 mM MES, pH 5.5) using multiple chip locations for each concentration. In the next association step, the binding interaction of antigen to the coupled antibody was measured. In general, each binding event consisted of a one minute baseline interval followed by a 5 minute antigen injection and a 15 minute dissociation with HBSTE buffer (10 mM HEPES, 150 mM NaCl, 3 mM EDTA, 0.01% Tween-20, pH 7.4) as running buffer. […] Antigens for binding studies were then prepared by reconstituting according to manufacturer recommendation. To obtain accurate kinetic constants, the reconstituted antigens were subsequently diluted into HBSTE buffer to final concentrations ranging from 1.2 nM to 900 nM. Injections of the antigens at each concentration were performed in series. In the next dissociation step, a regeneration process consisting of three times of injection for 25 seconds with 0.1 M glycine (pH 2.8), 1 M NaCl was performed between each antigen binding event, by which the bound antigen on the surface of the chip was allowed to dissociate. Carterra Kinetics analysis package was used to calculate rate constants (kₐ, kd) and corresponding equilibrium dissociation constants (Kd). Binding data were first recovered by double-referencing to subtract the closest reference cell and blank injection.

[5] = biological target: T5, Human CD47, soluble His-tagged extracellular domain (AcroBiosystems Cat# CD7-H82E9) (human, UniProt Q08722 19-139); test: as above
T5 construct: Bought reagent; also called biotinylated human CD47 His-Avitag; not shown: His tag / His-Avitag of the bought reagent
T5 sequence (Q08722 19-139): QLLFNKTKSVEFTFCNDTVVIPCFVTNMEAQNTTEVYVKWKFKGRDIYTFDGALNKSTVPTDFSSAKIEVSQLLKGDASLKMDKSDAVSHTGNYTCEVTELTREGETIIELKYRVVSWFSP
Procedure: as §1

[6] = biological target: T6, Cynomolgus CD47, soluble His-tagged (AcroBiosystems Cat# CD7-C52H1) (cynomolgus, UniProt A0A2K5X523 19-139); test: as above
T6 construct: Soluble antigen; also called Cyno CD47; cyno-CD47
Procedure: as §1

[7] = biological target: T7, Human PD-L1, soluble His-tagged (AcroBiosystems Cat# PD1-H82E5) (human, UniProt Q9NZQ7 19-238); test: as above
T7 construct: The Carterra reagent PD1-H82E5 is only called a soluble, His-tagged antigen; The Biacore reagent is not specified; also called PD-L1/B7-H1; not shown: His tag of the bought reagent
T7 sequence (Q9NZQ7 19-238): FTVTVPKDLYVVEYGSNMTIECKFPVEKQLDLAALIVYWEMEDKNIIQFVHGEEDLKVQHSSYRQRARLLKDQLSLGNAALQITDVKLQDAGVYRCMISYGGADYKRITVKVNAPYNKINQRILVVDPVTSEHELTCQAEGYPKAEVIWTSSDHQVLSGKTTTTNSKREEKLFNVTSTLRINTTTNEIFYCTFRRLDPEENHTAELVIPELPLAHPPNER
Procedure: as §1

[8] = biological target: T1, Human PD-L1 on the cell surface (tumor …); test: cell-based or functional assay; remark: listed apart in the source
[9] = biological target: T3, CD47 and PD-L1 co-expressed on the …; test: flow cytometry (MFI) on NCI-H292 cells endogenously expressing CD47 and PD-L1
[10] = biological target: T3, CD47 and PD-L1 co-expressed on the …; test: flow cytometry (MFI) on PDL1-MDA-MB-231 cells co-expressing CD47 and PD-L1; PDL1-MDA-MB-231 cells carrying both CD47 (~500,000) and PD-L1 (~1,500,000)
[11] = biological target: T4, Cynomolgus PD-L1, soluble His-tagged …; test: Biacore (SPR); format not described
[12] = biological target: T5, Human CD47, soluble His-tagged …; test: Biacore (SPR); format not described
[13] = biological target: T6, Cynomolgus CD47, soluble His-tagged …; test: Biacore (SPR); format not described
[14] = biological target: T7, Human PD-L1, soluble His-tagged …; test: Biacore (SPR); format not described
[15] = biological target: T3, CD47 and PD-L1 co-expressed on the …; test: flow cytometry, MFI on NCI-H292 tumor cells mixed with human RBC (tumor cells labelled with CellTrace Violet)
[16] = biological target: T3, CD47 and PD-L1 co-expressed on the …; test: flow cytometry (MFI) on HT-1080 cells endogenously expressing CD47 and PD-L1
[17] = biological target: T2, Human CD47 on the cell surface (tumor …); test: cell-based or functional assay; remark: listed apart in the source
[18] = biological target: T5, Human CD47, soluble His-tagged …; test: phage display selection and phage ELISA on biotinylated human CD47 extracellular domain
[19] = biological target: T7, Human PD-L1, soluble His-tagged …; test: phage display selection and phage ELISA on biotinylated human PD-L1 extracellular domain, then affinity maturation

T2 sequence (Q08722 19-323 limits assumed): as the sequence (Q08722 19-323 limits assumed, chain 1 of 2) above
T1 sequence (Q9NZQ7 19-290 limits assumed): as the sequence (Q9NZQ7 19-290 limits assumed, chain 2 of 2) above

B1: bsAb1 (mAb-C x mAb-P in an exemplary format; bispecific anti-CD47 x anti-PD-L1 antibody of four polypeptide chains) (bispecific antibody)
chain 1: not shown
chain 2: EVQLVESGGGLVQPGGSLRLSCAASGFTFSWYYIHWVRQAPGKGLEWVAYIDSSSGYTEYADSVKGRFTISADTSKNTAYLQMNSLRAEDTAVYYCARGGYLGMDYWGQGTLVTVSSAQPREPQVYTLPPCRDWLTKNQVSLTCLVKGFYPSDIAVEWESNGQPENNYKTTPPVLDSDGSFFLYSKLTVDKSRWQQGNVFSCSVMHEALHNHYTQKSLSLSPGK
chain 3: not shown
chain 4: EVQLVESGGGLVQPGGSLRLSCAASGFTFRSYYIHWVRQAPGKGLEWVATISSYGVFTYYADSVKGRFTISADTSKNTAYLQMNSLRAEDTAVYYCARGTTLTPVLDYWGQGTLVTVSSASTKGPSVFPLAPSSKSTSGGTAALGCLVKDYFPEPVTVSWNSGALTSGVHTFPAVLQSSGLYSLSSVVTVPSSSLGTQTYICNVNHKPSNTKVDKKVEPKSC
notes: Chains 1+2 form the CD47 arm (mAb-C), chains 3+4 the PD-L1 arm (mAb-P); also called the selected bispecific antibody
EC50 of inhibiting PD-1/PD-L1 interaction in PDL1-MDA-MB-231 cells (PathHunter chemiluminescent signal) [1]: 0.22 nM
EC50 of inhibiting CD47/SIRPα signaling in PDL1-MDA-MB-231 cells (PathHunter chemiluminescent signal) [2]: 0.076 nM
ADCP (phagocytosis of NCI-H292 cells) EC50 [3]: 0.2 nM
Kd [4]: 0.18 nM
koff [4]: 0.00015 s⁻¹
kon [4]: 890000 M⁻¹ s⁻¹
Kd [5]: 27 nM
koff [5]: 0.0093 s⁻¹
kon [5]: 350000 M⁻¹ s⁻¹
Kd [6]: 24 nM
koff [6]: 0.0046 s⁻¹
kon [6]: 190000 M⁻¹ s⁻¹
Kd [7]: 0.15 nM
koff [7]: 0.00013 s⁻¹
kon [7]: 980000 M⁻¹ s⁻¹
IC50, PD-L1/PD-1 block (PathHunter PD-1/PD-L1 signaling bioassay) [8]: 0.5 nM
EC50 [9]: 0.7 nM
EC50 [10]: 0.22 nM
Kd [11]: 0.034 nM
koff [11]: 0.00012 s⁻¹
Kd [12]: 21 nM
koff [12]: 0.0141 s⁻¹
Kd [13]: 25 nM
koff [13]: 0.0137 s⁻¹
Kd [14]: 0.05 nM
koff [14]: 0.000164 s⁻¹
EC50 (read off the curve) [15]: ~700 pM
EC50 [16]: 0.2 nM
IC50, CD47/SIRPa block (PathHunter CD47/SIRPα signaling bioassay) [17]: 0.8 nM

B2: Antibody mAb-C (selected CD47 binding antibody) (antibody, IgG1, V domains shown)
VH: EVQLVESGGGLVQPGGSLRLSCAASGFTFSWYYIHWVRQAPGKGLEWVAYIDSSSGYTEYADSVKGRFTISADTSKNTAYLQMNSLRAEDTAVYYCARGGYLGMDYWGQGTLVTVSS
VL: DIQMTQSPSSLSASVGDRVTITCRASQSVSSAVAWYQQKPGKAPKLLIYSASSLYSGVPSRFSGSRSGTDFTLTISSLQPEDFATYYCQQSRSRPRTFGQGTKVEIK
notes: Selected as a Fab on phage
binding result [18]: binds

B3: Antibody mAb-P (selected and then affinity matured PD-L1 binding antibody) (antibody, human IgG1, V domains shown)
VH: EVQLVESGGGLVQPGGSLRLSCAASGFTFRSYYIHWVRQAPGKGLEWVATISSYGVFTYYADSVKGRFTISADTSKNTAYLQMNSLRAEDTAVYYCARGTTLTPVLDYWGQGTLVTVSS
VL: DIQMTQSPSSLSASVGDRVTITCRASQSVSSAVAWYQQKPGKAPKLLIYSASSLSSGVPSRFSGSRSGTDFTLTISSLQPEDFATYYCQQFGAEPITFGQGTKVEIK
binding result [19]: binds
